From patent US20150344570A1 (published 2015)

T1: FcγRIIb extracellular domain with C-terminal His tag (human, UniProt P31994 43-217)
T1 construct: extracellular domain; Soluble receptor expressed in FreeStyle293 cells and used as analyte in Biacore; also called FcgRIIb; 2b; not shown: His tag at the C terminus
T1 sequence (looked up): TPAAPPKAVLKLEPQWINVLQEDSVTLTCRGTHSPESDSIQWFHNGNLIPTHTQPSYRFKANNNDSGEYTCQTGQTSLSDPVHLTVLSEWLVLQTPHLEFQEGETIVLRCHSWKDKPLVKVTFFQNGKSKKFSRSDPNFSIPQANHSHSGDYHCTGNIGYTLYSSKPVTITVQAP


Experiments:
[1] = biological target: T1, FcγRIIb extracellular domain with …; experiment: SPR (Biacore), antibody captured on antigen-peptide chip, FcγR as analyte; relative binding amount
Method: (§1) The heterodimerized antibodies He Abs in which one of the H chains was introduced with an alteration were assayed for their binding activities to each activating FcγR and inhibitory FcγR according to the method described in Example 4. […] The activating FcγRs in FIGS. 26, 27, 28, and 29 are FcγRIa, FcγRIIa (R), FcγRIIa (H), and FcγRIIIa, respectively.
(§2) Analysis of interaction between objective antibody and the FcγR was carried out using Biacore T100 (GE Healthcare). HBS-EP+ (GE Healthcare) was used as the running buffer, and the measurement temperature was set to 25° C. Chips produced by immobilizing the antigen peptide by the amine coupling method to a Series S Sencor Chip CM5 (GE Healthcare), or alternatively, chips produced by allowing preliminarily biotinylated antigen peptides to interact with and immobilize onto a Series S Sensor Chip SA (certified) (GE Healthcare) were used. Antibodies of interest were captured onto an antigen peptide-immobilized chip, and allowed to interact to each FcγR diluted with running buffer. To regenerate and repeatedly use the chip, the antibodies captured on the chip were washed off by reacting 10 mM glycine-HCl, pH 1.5.

[2] = biological target: T2, FcγRIIIa extracellular domain with C-terminal His tag (human, UniProt P08637 17-208); experiment: as above
T2 construct: extracellular domain; also called FcgRIIIa; 3a; not shown: His tag at the C terminus
T2 sequence (P08637 17-208): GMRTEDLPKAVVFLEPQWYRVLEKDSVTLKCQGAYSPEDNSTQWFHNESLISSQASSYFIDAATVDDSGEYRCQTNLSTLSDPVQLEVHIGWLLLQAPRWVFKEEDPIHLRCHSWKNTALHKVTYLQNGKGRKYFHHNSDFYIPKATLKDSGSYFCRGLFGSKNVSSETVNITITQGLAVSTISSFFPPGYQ
Method: as §1, §2

[3] = biological target: T2, FcγRIIIa extracellular domain with …; experiment: SPR (Biacore); He/Con for FcγRIIIa divided by He/Con for FcγRIIb
Method: as §1, §2

[4] = biological target: T3, FcgRIIIa F (FcγRIIIa type F) extracellular domain with C-terminal His tag (human, UniProt P08637 17-208); experiment: SPR (Biacore); relative binding activity of the heterodimerized antibody with the alteration in one H chain
T3 construct: extracellular domain; also called FcγRIIIa F; 3aF; not shown: His tag attached to the C terminus
T3 sequence (P08637 17-208): as above

Row | He/Con_2b (IIb binding) [1] | He/Con_3a (IIIa binding) [2] | He_3a/2b (IIIa/IIb) [3] | He/Con_3aF [4] | Binder
1 | 109 relative, GpH7-A5/GpH7-B3/GpL16-k0 = 100 | 141 relative, GpH7-A5/GpH7-B3/GpL16-k0 = 100 | 1.29 ratio | – | GpH7-A5/GpH7-B3 variant K334_15Y/GpL16-k0 (antibody, human IgG1, kappa, Heterodimerized anti-glypican-3 IgG1 (He Ab); The mutation is in the GpH7-B3 chain only; also called He Ab with K334Y in GpH7-B3) heavy 1: not shown heavy 2: not shown light: DIVMTQSPLSLPVTPGEPASISCQASESLVHSNRNTYLHWYLQKPGQSPQLLIYKVSNRFSGVPDRFSGSGSGTDFTLKISRVEAEDVGVYYCSQNTHVPPTFGQGTKVEIERTVAAPSVFIFPPSDEQLKSGTASVVCLLNNFYPREAKVQWKVDNALQSGNSQESVTEQDSKDSTYSLSSTLTLSKADYEKHKVYACEVTHQGLSSPVTKSFNRGEC
2 | 109 relative, GpH7-A5/GpH7-B3/GpL16-k0 = 100 | 136 relative, GpH7-A5/GpH7-B3/GpL16-k0 = 100 | 1.25 ratio | – | GpH7-A5/GpH7-B3 variant K334_19Q/GpL16-k0 (antibody, human IgG1, kappa, Heterodimerized anti-glypican-3 IgG1 (He Ab); The mutation is in the GpH7-B3 chain only; also called He Ab with K334Q in GpH7-B3) heavy 1: not shown heavy 2: not shown light: DIVMTQSPLSLPVTPGEPASISCQASESLVHSNRNTYLHWYLQKPGQSPQLLIYKVSNRFSGVPDRFSGSGSGTDFTLKISRVEAEDVGVYYCSQNTHVPPTFGQGTKVEIERTVAAPSVFIFPPSDEQLKSGTASVVCLLNNFYPREAKVQWKVDNALQSGNSQESVTEQDSKDSTYSLSSTLTLSKADYEKHKVYACEVTHQGLSSPVTKSFNRGEC
3 | 83.7 relative, GpH7-A5/GpH7-B3/GpL16-k0 = 100 | 102 relative, GpH7-A5/GpH7-B3/GpL16-k0 = 100 | 1.21 ratio | – | GpH7-A5/GpH7-B3 variant I336_13S/GpL16-k0 (antibody, human IgG1, kappa, Heterodimerized anti-glypican-3 IgG1 (He Ab); The mutation is in the GpH7-B3 chain only; also called He Ab with I336S in GpH7-B3) heavy 1: not shown heavy 2: not shown light: DIVMTQSPLSLPVTPGEPASISCQASESLVHSNRNTYLHWYLQKPGQSPQLLIYKVSNRFSGVPDRFSGSGSGTDFTLKISRVEAEDVGVYYCSQNTHVPPTFGQGTKVEIERTVAAPSVFIFPPSDEQLKSGTASVVCLLNNFYPREAKVQWKVDNALQSGNSQESVTEQDSKDSTYSLSSTLTLSKADYEKHKVYACEVTHQGLSSPVTKSFNRGEC
4 | 58.2 relative, GpH7-A5/GpH7-B3/GpL16-k0 = 100 | 92.5 relative, GpH7-A5/GpH7-B3/GpL16-k0 = 100 | 1.59 ratio | – | GpH7-A5/GpH7-B3 variant I336_19Q/GpL16-k0 (antibody, human IgG1, kappa, Heterodimerized anti-glypican-3 IgG1 (He Ab); The mutation is in the GpH7-B3 chain only; also called He Ab with I336Q in GpH7-B3) heavy 1: not shown heavy 2: not shown light: DIVMTQSPLSLPVTPGEPASISCQASESLVHSNRNTYLHWYLQKPGQSPQLLIYKVSNRFSGVPDRFSGSGSGTDFTLKISRVEAEDVGVYYCSQNTHVPPTFGQGTKVEIERTVAAPSVFIFPPSDEQLKSGTASVVCLLNNFYPREAKVQWKVDNALQSGNSQESVTEQDSKDSTYSLSSTLTLSKADYEKHKVYACEVTHQGLSSPVTKSFNRGEC
5 | 111 relative, GpH7-A5/GpH7-B3/GpL16-k0 = 100 | 145 relative, GpH7-A5/GpH7-B3/GpL16-k0 = 100 | 1.31 ratio | – | GpH7-A5/GpH7-B3 variant K334_13S/GpL16-k0 (antibody, human IgG1, kappa, Heterodimerized anti-glypican-3 IgG1 (He Ab); The mutation is in the GpH7-B3 chain only; also called He Ab with K334S in GpH7-B3) heavy 1: not shown heavy 2: not shown light: DIVMTQSPLSLPVTPGEPASISCQASESLVHSNRNTYLHWYLQKPGQSPQLLIYKVSNRFSGVPDRFSGSGSGTDFTLKISRVEAEDVGVYYCSQNTHVPPTFGQGTKVEIERTVAAPSVFIFPPSDEQLKSGTASVVCLLNNFYPREAKVQWKVDNALQSGNSQESVTEQDSKDSTYSLSSTLTLSKADYEKHKVYACEVTHQGLSSPVTKSFNRGEC
6 | – | – | – | 139 % of GpH7-A5/GpH7-B3/GpL16-k0 (= 100) | GpH7-A5/GpH7-B3 variant (A330M)/GpL16-k0 (antibody, human IgG1, kappa, also called He Ab A330_06M) heavy 1: not shown heavy 2: not shown light: DIVMTQSPLSLPVTPGEPASISCQASESLVHSNRNTYLHWYLQKPGQSPQLLIYKVSNRFSGVPDRFSGSGSGTDFTLKISRVEAEDVGVYYCSQNTHVPPTFGQGTKVEIERTVAAPSVFIFPPSDEQLKSGTASVVCLLNNFYPREAKVQWKVDNALQSGNSQESVTEQDSKDSTYSLSSTLTLSKADYEKHKVYACEVTHQGLSSPVTKSFNRGEC
7 | 104 relative, GpH7-A5/GpH7-B3/GpL16-k0 = 100 | 128 relative, GpH7-A5/GpH7-B3/GpL16-k0 = 100 | 1.23 ratio | – | GpH7-A5/GpH7-B3 variant K334_20W/GpL16-k0 (antibody, human IgG1, kappa, Heterodimerized anti-glypican-3 IgG1 (He Ab); The mutation is in the GpH7-B3 chain only; also called He Ab with K334W in GpH7-B3) heavy 1: not shown heavy 2: not shown light: DIVMTQSPLSLPVTPGEPASISCQASESLVHSNRNTYLHWYLQKPGQSPQLLIYKVSNRFSGVPDRFSGSGSGTDFTLKISRVEAEDVGVYYCSQNTHVPPTFGQGTKVEIERTVAAPSVFIFPPSDEQLKSGTASVVCLLNNFYPREAKVQWKVDNALQSGNSQESVTEQDSKDSTYSLSSTLTLSKADYEKHKVYACEVTHQGLSSPVTKSFNRGEC
8 | 89.8 relative, GpH7-A5/GpH7-B3/GpL16-k0 = 100 | 119 relative, GpH7-A5/GpH7-B3/GpL16-k0 = 100 | 1.33 ratio | – | GpH7-A5/GpH7-B3 variant I336_10E/GpL16-k0 (antibody, human IgG1, kappa, Heterodimerized anti-glypican-3 IgG1 (He Ab); The mutation is in the GpH7-B3 chain only; also called He Ab with I336E in GpH7-B3) heavy 1: not shown heavy 2: not shown light: DIVMTQSPLSLPVTPGEPASISCQASESLVHSNRNTYLHWYLQKPGQSPQLLIYKVSNRFSGVPDRFSGSGSGTDFTLKISRVEAEDVGVYYCSQNTHVPPTFGQGTKVEIERTVAAPSVFIFPPSDEQLKSGTASVVCLLNNFYPREAKVQWKVDNALQSGNSQESVTEQDSKDSTYSLSSTLTLSKADYEKHKVYACEVTHQGLSSPVTKSFNRGEC
